Test results as given in publication PMC6420636, “The deubiquitylating enzyme USP15 regulates homologous recombination repair and cancer cell response to PARP inhibitors” (Nature Communications, 2019).

Molecular target: T1, FLAG-BARD1-BRCT, deubiquitinated by His-USP15 in vitro (UniProt Q99728 568-777)
T1 construct: BARD1 C-terminal BRCT domain; also called deubiquitinated BARD1-BRCT domain
T1 sequence (looked up): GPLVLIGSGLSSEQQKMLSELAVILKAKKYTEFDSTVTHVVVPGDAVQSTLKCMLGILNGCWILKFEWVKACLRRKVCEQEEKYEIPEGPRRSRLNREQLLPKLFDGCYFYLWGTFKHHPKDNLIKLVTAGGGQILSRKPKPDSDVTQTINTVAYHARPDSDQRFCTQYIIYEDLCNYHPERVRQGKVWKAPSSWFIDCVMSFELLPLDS
Test: pull-down; in vitro binding assay: BARD1-BRCT purified by tandem IP and left on FLAG beads, untreated or deubiquitinated by His-USP15, incubated with GST or GST-HP1γ
Conditions: both partners purified

B1: GST-HP1γ (natural protein)
chain: not shown
notes: HP1γ; plasmid a gift from Naoko Tanese; source: E. coli BL21, purified (glutathione Sepharose 4B)
- binding result: binds
